Assay results published in the Immune Epitope Database (IEDB).
pKd: −log10 of the molar value. Each block holds one sequence with its values, some of them ahead of it.

Legend:
[1] = target: HLA-B*15:17; assay: IEDB peptide-MHC binding, purified MHC/competitive/fluorescence; filed as Kd, often an IC50 or EC50 that approximates it; ≥ and ≤ were set here for values at or beyond the usual limits of such assays; settings: source organism: Vaccinia virus Copenhagen
[2] = target: HLA-A*68:02; assay: as above; settings: source organism: Vaccinia virus Copenhagen
[3] = target: HLA-B*39:01; assay: as above; settings: source organism: Vaccinia virus Copenhagen
[4] = target: HLA-A*30:01; assay: as above
[5] = target: HLA-B*15:09; assay: as above
[6] = target: HLA-B*27:05; assay: IEDB peptide-MHC binding, purified MHC/direct/fluorescence; filed as Kd, often an IC50 or EC50 that approximates it; ≥ and ≤ were set here for values at or beyond the usual limits of such assays
[7] = target: HLA-A*31:01; assay: as above
[8] = target: HLA-A*11:01; assay: as above
[9] = target: HLA-B*18:01; assay: as above
[10] = target: HLA-A*69:01; assay: as above; settings: source organism: Camelpox virus M-96
[11] = target: HLA-A*26:03; assay: as above; settings: source organism: Variola virus
[12] = target: HLA-B*07:02; assay: as above
[13] = target: HLA-B*48:01; assay: as above
[14] = target: HLA-B*40:01; assay: as above
[15] = target: HLA-A*01:01; assay: as above
[16] = target: HLA-B*44:02; assay: as above; settings: source organism: Camelpox virus M-96
[17] = target: HLA-B*58:01; assay: as above
[18] = target: HLA-B*57:01; assay: as above
[19] = target: HLA-A*69:01; assay: IEDB peptide-MHC binding, purified MHC/competitive/fluorescence; filed as Kd, often an IC50 or EC50 that approximates it; ≥ and ≤ were set here for values at or beyond the usual limits of such assays
[20] = target: HLA-A*03:01; assay: IEDB peptide-MHC binding, purified MHC/direct/fluorescence; filed as Kd, often an IC50 or EC50 that approximates it; ≥ and ≤ were set here for values at or beyond the usual limits of such assays; settings: source organism: Bacillus anthracis
[21] = target: HLA-B*15:17; assay: as above; settings: source organism: Bacillus anthracis
[22] = target: HLA-B*46:01; assay: as above; settings: source organism: Bacillus anthracis
[23] = target: HLA-A*30:01; assay: as above; settings: source organism: Bacillus cereus 03BB108
[24] = target: HLA-B*38:01; assay: as above; settings: source organism: Bacillus cereus 03BB108
[25] = target: HLA-B*51:01; assay: as above; settings: source organism: Bacillus anthracis
[26] = target: HLA-B*15:01; assay: as above; settings: source organism: Bacillus anthracis
[27] = target: HLA-A*02:01; assay: as above; settings: source organism: Bacillus anthracis
[28] = target: HLA-A*03:01; assay: IEDB peptide-MHC binding, purified MHC/competitive/fluorescence; filed as Kd, often an IC50 or EC50 that approximates it; ≥ and ≤ were set here for values at or beyond the usual limits of such assays; settings: source organism: Pseudomonas aeruginosa UCBPP-PA14
[29] = target: HLA-A*02:06; assay: as above; settings: source organism: Pseudomonas aeruginosa UCBPP-PA14
[30] = target: HLA-B*35:01; assay: as above; settings: source organism: Pseudomonas aeruginosa UCBPP-PA14
[31] = target: HLA-A*02:16; assay: as above; settings: source organism: Pseudomonas aeruginosa UCBPP-PA14
[32] = target: HLA-B*27:05; assay: as above; settings: source organism: Pseudomonas aeruginosa UCBPP-PA14
[33] = target: HLA-A*02:11; assay: as above; settings: source organism: Pseudomonas aeruginosa UCBPP-PA14
[34] = target: HLA-A*31:01; assay: as above; settings: source organism: Pseudomonas aeruginosa UCBPP-PA14
[35] = target: HLA-B*46:01; assay: as above; settings: source organism: Pseudomonas aeruginosa UCBPP-PA14
[36] = target: HLA-A*11:01; assay: as above; settings: source organism: Pseudomonas aeruginosa UCBPP-PA14
[37] = target: HLA-A*02:12; assay: as above; settings: source organism: Pseudomonas aeruginosa UCBPP-PA14
[38] = target: HLA-A*24:02; assay: as above; settings: source organism: Pseudomonas aeruginosa UCBPP-PA14
[39] = target: HLA-B*18:01; assay: as above; settings: source organism: Pseudomonas aeruginosa UCBPP-PA14
[40] = target: HLA-A*26:01; assay: as above; settings: source organism: Pseudomonas aeruginosa UCBPP-PA14
[41] = target: HLA-B*07:02; assay: as above; settings: source organism: Pseudomonas aeruginosa UCBPP-PA14
[42] = target: HLA-B*40:01; assay: as above; settings: source organism: Pseudomonas aeruginosa UCBPP-PA14
[43] = target: HLA-A*02:19; assay: as above; settings: source organism: Pseudomonas aeruginosa UCBPP-PA14
[44] = target: HLA-A*01:01; assay: as above; settings: source organism: Pseudomonas aeruginosa UCBPP-PA14
[45] = target: HLA-B*15:01; assay: as above; settings: source organism: Pseudomonas aeruginosa UCBPP-PA14
[46] = target: HLA-A*02:50; assay: as above; settings: source organism: Pseudomonas aeruginosa UCBPP-PA14
[47] = target: HLA-A*02:01; assay: as above; settings: source organism: Pseudomonas aeruginosa UCBPP-PA14
[48] = target: HLA-B*58:01; assay: as above; settings: source organism: Pseudomonas aeruginosa UCBPP-PA14
[49] = source organism: Vaccinia virus Copenhagen
[50] = source organism: Camelpox virus M-96
[51] = source organism: Bacillus anthracis str. A0488
[52] = source organism: Bacillus anthracis
[53] = source organism: Pseudomonas aeruginosa UCBPP-PA14

Sequence: LEYGANYFL
pKd [1]: ≤ 4.70 | pKd [2]: 5.65 | pKd [3]: 5.52 | pKd [4, 49]: ≤ 4.70 | pKd [5, 49]: ≤ 4.70 | pKd [6, 50]: ≤ 4.70 | pKd [7, 50]: ≤ 4.70 | pKd [8, 50]: ≤ 4.70 | pKd [9, 50]: 7.93 | pKd [10]: 5.80 | pKd [11]: ≤ 4.70 | pKd [12, 50]: ≤ 4.70 | pKd [13, 50]: 5.36 | pKd [14, 50]: 8.48 | pKd [15, 50]: ≤ 4.70 | pKd [16]: ≤ 4.70 | pKd [17, 50]: ≤ 4.70 | pKd [18, 50]: ≤ 4.70

Sequence: WFREDRSPV
pKd [19, 51]: ≤ 4.70 | pKd [5, 51]: ≤ 4.70 | pKd [20]: ≤ 4.70 | pKd [6, 52]: ≤ 4.70 | pKd [7, 52]: ≤ 4.70 | pKd [21]: ≤ 4.70 | pKd [22]: ≤ 4.70 | pKd [8, 52]: ≤ 4.70 | pKd [23]: ≤ 4.70 | pKd [9, 52]: 6.84 | pKd [24]: ≤ 4.70 | pKd [12, 52]: ≤ 4.70 | pKd [13, 52]: ≤ 4.70 | pKd [14, 52]: ≤ 4.70 | pKd [25]: ≤ 4.70 | pKd [15, 52]: ≤ 4.70 | pKd [26]: ≤ 4.70 | pKd [27]: ≤ 4.70 | pKd [17, 52]: ≤ 4.70 | pKd [18, 52]: ≤ 4.70

pKd [28]: ≤ 4.70 | pKd [29]: 8.17 | pKd [30]: ≤ 4.70 | pKd [31]: 8.80 | pKd [32]: ≤ 4.70 | pKd [33]: 9.30 | pKd [34]: ≤ 4.70 | pKd [35]: ≤ 4.70 | pKd [36]: ≤ 4.70 | pKd [37]: 8.66 | pKd [4, 53]: ≤ 4.70 | pKd [38]: ≤ 4.70 | pKd [39]: ≤ 4.70 | pKd [19, 53]: 6.00 | pKd [40]: ≤ 4.70 | pKd [41]: ≤ 4.70 | pKd [42]: ≤ 4.70 | pKd [43]: 7.00 | pKd [44]: ≤ 4.70 | pKd [45]: ≤ 4.70 | pKd [46]: 8.28 | pKd [47]: 7.38 | pKd [48]: ≤ 4.70
Sequence: FLDDASNSA
